This passage reports pKa results from publication PMC3026807.

This data set concerns the target Arg224 (UniProt position 224, YHALYRYFVEL). Nature of the data set: electrophysiology.

Take “TASK-2 (K2P5.1, KCNK5) two-pore-domain potassium channel (Mus musculus)”: where the note is “pHo-gated channel, closed to open on alkalinization, non-concatenated WT, cited from earlier work”, the pKa is given as 8.0.

In turn, “TASK-2 WT-WT concatenated tandem dimer (Mus musculus; deletion of the C-terminal 148 residues (after V354) in the first protomer; insertion of L355-D356 linker; no substitution at R224 in either protomer)” gave a pKa (Bath (mM): 67.5 Na2SO4, 4 KCl, 1 K gluconate, 2 CaCl2, 1 MgCl2, 105 sucrose (standard solution). The article does not state explicitly which bath was used for Figure 5. Pipette: 140 mM KCl., 10 mM Hepes/Tris, MES for pH 5.0-6.5, AMPSO for pH 8.5-9.0, CAPS for pH 9.5-11.0, concatenated WT-WT channel, pHo gating) of 8.2±0.15.
